Consider 1 molecule from US20220064310A1 (DEVELOPMENT CENTER FOR BIOTECHNOLOGY, published 2022).

Assay [1] deals with T1, CSF-1R ECD variant 228-233A (human, UniProt P07333 20-512).
T1 chain: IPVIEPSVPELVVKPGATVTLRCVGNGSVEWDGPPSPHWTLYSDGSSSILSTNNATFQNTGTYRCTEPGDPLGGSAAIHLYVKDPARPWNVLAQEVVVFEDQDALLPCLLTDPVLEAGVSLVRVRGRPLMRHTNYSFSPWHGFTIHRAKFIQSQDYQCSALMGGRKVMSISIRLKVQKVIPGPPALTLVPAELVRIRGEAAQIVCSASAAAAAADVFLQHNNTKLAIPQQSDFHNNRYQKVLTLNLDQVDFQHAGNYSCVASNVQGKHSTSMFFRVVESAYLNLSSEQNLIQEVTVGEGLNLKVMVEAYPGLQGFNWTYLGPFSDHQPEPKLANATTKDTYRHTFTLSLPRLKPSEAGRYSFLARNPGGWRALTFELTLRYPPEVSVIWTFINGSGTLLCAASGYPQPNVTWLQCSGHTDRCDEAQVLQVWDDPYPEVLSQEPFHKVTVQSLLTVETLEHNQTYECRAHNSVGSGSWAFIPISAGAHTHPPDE
The assay can be described thus: ELISA, coated CSF-1R ECD variant 228-233A, AB21 titrated, Abs450. As for the experimental part:
(§1) One hundred (100) ng of human CSF-1R-Fc protein was coated on a 96-well ELISA plate, and the plate was further washed with PBS. Serial dilutions from 1×10⁻¹² to 1×10⁻⁸ M of AB21 mAb antibody were added to the plate, and the plate was incubated at 37° C. for 1 hour. A goat anti-mouse IgG conjugated with horseradish peroxidase (HRP) was added. After 1 hour, 3,3′,5,5′-Tetramethylbenzidine (TMB) was added and OD450 was read. Every study was repeated three times. Data were presented as mean SD. OD readings and concentrations of antibodies were used to make a multiple scatter plot using GraphPad Prism 5. The values were predicted by four parameter logistic fit.
To determine the binding epitopes of anti-CSF-1R antibody AB21, different CSF-1R extracellular domain variants that certain residues were replaced with alanine were constructed. […] After the variant proteins were purified, the binding affinity of AB21 mAb to these CSF-1R-ECD variants were analyzed by ELISA with the process described in Example 1.
On the technique in general: An ELISA detects its analyte on a solid surface through an enzyme-linked reagent.

Assay [2] addresses T2, human CSF-1R on the cell surface (THP-1 cells, endogenous); Ba/F3 cells stably expressing full-length human … (human, UniProt P07333 20-972).
T2 construct: whole, on cells; also called Ba/F3-CSF-1R; Ba/F3-hCSF-1R
Description: flow cytometry on THP-1 cells, FITC anti-mouse secondary antibody, readout CD115+ of single cells (%). As for the experimental part: In addition to binding CSF-1R ECD in vitro, antibodies of the invention can also bind CSF-1R on cells. In this example, THP-1 cells (human monocytic cell line, ATCC® TIB-202™) were stained in different concentrations of antibodies (AB21) from 6 to 0.625 μg/ml. After washing, cells were stained with secondary antibody FITC anti-mouse (1:500 dilution). Cells were fixed with a fixation buffer (FluroFix™ buffer, Biolegend) and analyzed with LSRFortessa FACS analyzer (Becton Dickson, US). […] The dose-dependent binding fits a sigmoid curve in the semi-log plot, indicating binding to a specific site (i.e., the antibody binds specifically to the target on the THP-1 cells).

The target of assay [3] is T3, human CSF-1R extracellular domain (CSF-1R-ECD) (human, UniProt P07333 20-512). Description: SPR BIAcore T200, AB21 amine-coupled, CSF-1R-ECD 0.3125-40 nM as analyte, 25 C. The text has this:
(§2) To know the biding kinetics difference among individual antibodies, surface plasmon resonance (SPR) measurement with a BIAcore T200 (BIAcore, Inc., Piscataway, N.J.) was used as previously described (Karlsson & Fait, (1997) J. Immunol Methods 200:121-133). Carboxymethylated dextran biosensor chips (CMS, BIAcore Inc.) were activated with N-ethyl-N′-(3-dimethyl aminopropyl)-carbodiimide hydrochloride (EDC) and N-hydroxy succinimide (NHS) according to the supplier's instructions. AB21 mAb was diluted with 10 mM sodium acetate, pH 4.8, into 5 microgram/ml before injection at a flow rate of 20 micro L/minute to achieve approximately 100 response units (RU) of coupled protein followed by the injection of 1M ethanolamine to block unreacted groups. For kinetics measurements, two-fold serial dilutions of CSF-1R-ECD (0.3125 nM to 40 nM) were injected in HBS-P BIAcore running buffer provided by the manufacturer (BIAcore, Inc., Piscataway, N.J.) at 25° C. at a flow rate of 30 μL/min, and binding responses on the AB21 mAb were corrected by subtraction of responses on a blank flow cell. Association rates (kon or ka) and dissociation rates (koff or kd) were calculated using a simple one-to-one Langmuir binding model with separate fittings of kon and koff was used. (BIAcore™ Evaluation Software version 3.2).

The target of assay [4] is T4, CSF-1R-ECD-human Fc (in house) (human, UniProt P07333 20-512).
T4 construct: In-house fusion; also called CSF-1R-ECD-hFc; CSF1R-ECD-hFc; not shown: human Fc
Description: blocking ELISA: coated CSF-1R-ECD-human Fc, AB21 titrated together with M-CSF, bound CSF-1 detected with biotinylated anti-CSF-1 BAF216 and streptavidin-HRP, Abs450. As to the method: CSF-1R-ECD-human Fe (in house) is diluted to 1.2 μg/ml with coating buffer and coating overnight at 4° C. After incubation step, plates were washed 1 time with the wash buffer and blocking with 1% casein blocking buffer at room temperature for 2 hours. Different dilutions of purified AB21 antibodies were incubated with 250 ng/ml of M-CSF (R&D system, 216-GMP-025) in dilution buffer at 37° C. for 1 hour. After 5 times of wash, the ligand which bound to the receptor can be detected by 50 ng/ml biotinylated […] clone BAF216 (R&D Systems, UK) and 1:5000 diluted streptavidin HRP (Roche Diagnostics GmbH, DE, Cat. No. 11089153001) after 1 hour incubation. Anti CSF-1R SC 2-4A5 (Santa Cruz Biotechnology, US), which inhibits the ligand-receptor interaction, was used as positive control. Plates were developed with TMB Microwell Peroxidase Substrate (KPL, 95059-154). Absorbance was measured at 450 nm. A decrease of absorbance is found, if the anti-CST-1R antibody causes a release of CSF-1 from the dimeric complex. […] Therefore, antibodies of the invention can be used to prevent or treat diseases mediated by CSF-1R or CSF-1.

The target of a further assay is T5, mouse CSF-1R (mouse, UniProt P09581 20-511, limits assumed).
T5 sequence (looked up): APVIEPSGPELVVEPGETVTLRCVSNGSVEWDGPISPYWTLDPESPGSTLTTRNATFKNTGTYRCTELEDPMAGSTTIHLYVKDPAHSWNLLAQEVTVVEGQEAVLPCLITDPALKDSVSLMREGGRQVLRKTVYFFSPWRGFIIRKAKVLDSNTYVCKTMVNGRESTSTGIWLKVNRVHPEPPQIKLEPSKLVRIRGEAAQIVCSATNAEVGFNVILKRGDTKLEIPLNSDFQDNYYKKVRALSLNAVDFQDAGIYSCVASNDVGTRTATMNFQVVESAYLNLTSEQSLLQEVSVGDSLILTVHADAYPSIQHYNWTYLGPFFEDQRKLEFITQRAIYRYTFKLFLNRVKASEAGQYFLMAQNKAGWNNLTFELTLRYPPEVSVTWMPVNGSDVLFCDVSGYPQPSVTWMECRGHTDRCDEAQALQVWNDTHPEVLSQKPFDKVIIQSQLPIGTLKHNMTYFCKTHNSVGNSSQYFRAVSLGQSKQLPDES
Description: not described.

For assay [5], the target named is T6, human CSF-1R-Fc protein (M-CSF R/CD115 Fc chimera, R&D Systems) (human, UniProt P07333 20-512).
T6 construct: Fc part of the bought chimera not given
The assay can be described thus: ELISA, coated M-CSF R/CD115 Fc chimera (R&D), AB21 titrated, goat anti-mouse IgG-HRP, Abs450. As for the experimental part:
(§3) After binding and washing, the bound mAb AB21 was assessed using a horseradish peroxidase conjugated secondary antibody.
as §1

For assay [6], the target named is T6, human CSF-1R-Fc protein (M-CSF R/CD115 …). The assay can be described thus: ELISA, 100 ng human CSF-1R-Fc coated, four parameter logistic fit. As to the method: as §3, §1
Assay [7] deals with T3, human CSF-1R extracellular domain …. Description: Biacore T200 SPR, AB21 amine-coupled on the chip, CSF-1R-ECD injected at 0.3125 to 40 nM, 1:1 Langmuir fit.
From the text: as §2
In general terms: Surface plasmon resonance follows binding to a sensor surface in real time, without labels.

B1: mouse hybridoma anti-human CSF-1R antibody mAb AB21 (antibody, V domains shown)
VH: EVQLQQSGPELEKPGASVKISCKASGYSFTGYNMNWVKQSNGKSLEWIGNIDPYYGGTTYNQKFKGKATLTVDKSSSTAYMQLKSLTSEDSAVYYCARRGDYSGSSYWYFDVWGAGTTVTVSS
VL: DIQMTQSSSYLSVSLGGRVTITCKASDHINNWLAWYQQKPGNAPRLLISGATSLETGVPSRFSGSGSGKDYTLSITSLQTEDVVTYYCQQYWSTPFTFGSGTKLEIK
notes: Mouse monoclonal antibody purified from hybridoma ascites (Protein A); also called AB21 mAb; mAb 21
In general, EC50 refers to the concentration giving half of the maximal effect. The low end stands for an effect from little substance, the high end for a need for much substance. In general, Kd refers to the constant that tells how readily two partners part at equilibrium. By koff is commonly meant a measure of how fast the partners let go of each other. A high value points to fast dissociation. In general, kon refers to the rate constant with which the complex forms. A lower kon goes with slower complex formation. For the molecule B1, the binding result is reported as “no binding (tested: about 3e-8 M (log -7.5 on the axis))” in assay [1] and “no binding” with mouse CSF-1R. Besides, the EC50 came out at 0.374 nM in assay [2] and 0.745 nM in assay [5]. The Kd in assay [3] stood at 0.123 nM; in assay [6], 0.745 nM. Also, in assay [4], the “IC50 (read off the curve)” value was ~2 nM. Besides, the koff in assay [7] is 4.9e-05 s⁻¹. The kon in assay [7] worked out at 399000 M⁻¹ s⁻¹.
